Results published in patent US20260284219A1, “ANTIBODY CONJUGATE, AND USES THEREOF” (Acepodia Biotechnologies, Ltd., priority 2024, published 2026).

Columns and labels:
[1] = target: His-tagged human PDL1 recombinant protein (Homo sapiens, UniProt Q9NZQ7); assay: Binding affinity ELISA on plates coated with PDL1; conditions: for EC50: N = 3; for EC50 of the conjugate relative to EC50 of atezolizumab: PDL1 binding; for PDL1 binding signal compared with atezolizumab: among the concentration range, signal at 450 nm
Method: The blocked His-tagged human PDL1 recombinant protein-coated white plate was then incubated with atezolizumab, atezolizumab-govitecan (DAR10), or the isotype control antibody at different concentrations at 37° C. for 1 hour. The unbound atezolizumab, atezolizumab-govitecan (DAR10), or the isotype control antibody was washed away with PBST.
The blocked His-tagged human PDL1 recombinant protein-coated white plate was then incubated with atezolizumab or atezolizumab-deruxtecan-vcMMAE (DAR 10) at different concentrations at 37° C. for 1 hour. The unbound atezolizumab or atezolizumab-deruxtecan-vcMMAE (DAR 10) was washed away with PBST.

[2] = tested on: human triple-negative breast cancer MDA-MB-231 cells; assay: Cytotoxicity assay (CellTiter-Glo 2.0), MDA-MB-231; type: cell-based; conditions: for cancer cells killed compared with atezolizumab: MDA-MB-231, 6 days, FIG. 6B; for cytotoxicity against MDA-MB-231: atezolizumab conjugates, 0.01-500 nM for 6 days
Method: Each condition was performed in triplicate. On the harvesting day, the number of viable cells in each well were measured according to the CellTiter-Glo™ 2.0 Assay process.

[3] = Aggregation by size exclusion chromatography HPLC (SEC-HPLC); type: physicochemical; conditions: SEC-HPLC of DAR10 dual-payload antibody drug conjugates

Sequence of His-tagged human PDL1 recombinant protein (Q9NZQ7 19-290): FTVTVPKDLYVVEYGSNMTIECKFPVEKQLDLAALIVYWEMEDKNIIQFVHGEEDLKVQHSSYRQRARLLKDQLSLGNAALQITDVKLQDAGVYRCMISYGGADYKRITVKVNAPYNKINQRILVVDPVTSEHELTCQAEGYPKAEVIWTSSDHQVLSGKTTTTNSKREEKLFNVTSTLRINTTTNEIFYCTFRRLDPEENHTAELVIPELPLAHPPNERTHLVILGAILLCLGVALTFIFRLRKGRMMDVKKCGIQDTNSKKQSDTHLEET

Substance | EC50 ([1]; Embodiment 1-3, FIG. 5) [nM] | EC50 of the conjugate relative to EC50 of atezolizumab [1] | PDL1 binding signal compared with atezolizumab [1] | cancer cells killed compared with atezolizumab [2] [%] | cytotoxicity against MDA-MB-231 [2] | cytotoxicity against MDA-MB-231 ([2]; listed as PDP-PDL1 mab-govitecan) | protein aggregation [3] | EC50 ([1]; Embodiment 2-3, FIG. 9) [nM]
atezolizumab-govitecan (DAR10): Atezolizumab with 8 govitecan on light and heavy chain cysteines and 2 govitecan on light-chain lysines (DAR10) | 0.75 | less than 2 times | no significant difference of signal detection | 50 | better cytotoxicity | exhibits cytotoxicity | resistant to protein aggregation | 
atezolizumab-deruxtecan-vcMMAE (DAR 10): Atezolizumab with 8 deruxtecan on cysteines and 2 vcMMAE on light-chain lysines (DAR10) |  | less than 2 times | no significant difference of signal detection |  | better cytotoxicity |  | resistant to protein aggregation | 1.56
atezolizumab: commercially available anti-PDL1 IgG1 antibody (DAR0) [reference compound] | 0.55 |  |  |  |  |  |  | 1.4
atezolizumab-govitecan (DAR8): Atezolizumab with 8 govitecan conjugated to cysteines by procedure (A) only (DAR8) |  |  |  | 25 |  |  |  | 
